3 molecules from publication PMC7473305 (Frontiers in Immunology, 2020) can be followed below.

Test [1] concerns the target human IL-17A/F heterodimer (Homo sapiens, UniProt Q16552;Q96PD4). The test can be described thus: cell-based or functional assay.
The target of test [2] is T1, human IL-17F (R&D Systems) (Homo sapiens, UniProt Q96PD4). The experiment in a line: cell-based or functional assay.
Test [3] has as its target T2, human IL-17A (generated at UCB) (Homo sapiens, UniProt Q16552). The test can be described thus: cell-based or functional assay.
Test [4] has as its target T3, cynomolgus macaque IL-17A (Macaca fascicularis, UniProt A0A2K5TTB0).
T3 construct: interleukin-17A, cynomolgus macaque; source: generated at UCB
The test can be described thus: SPR; Biacore T200, CM5 chip; IgG1 captured by F(ab')2 fragment-specific or Fcγ-specific goat anti-human IgG F(ab')2; cytokine titrated over it (10 nM IL-17F or 5 nM IL-17A and IL-17A/F downwards); HBS-EP pH 7.4, 25°C. The following applies: both partners purified. A general note: In SPR one partner is held on a chip, and binding of the other changes the refractive index at the surface.

The target of test [5] is T4, cynomolgus macaque IL-17F (Macaca fascicularis, UniProt G7P4V0).
T4 construct: interleukin-17F, cynomolgus macaque; source: generated at UCB
The test is described as above. The following applies: both partners purified.

Test [6] has as its target T2, human IL-17A (generated at UCB). The experiment in a line: SPR; Biacore T200, CM5 chip; Fab captured on immobilised anti-human F(ab')2; cytokine titrated over it; HBS-EP pH 7.4, 25°C. The note with it: both partners purified.
Test [7] concerns the target T1, human IL-17F (R&D Systems). The test is described as above. The following applies: both partners purified.

T2 sequence (Q16552 24-155): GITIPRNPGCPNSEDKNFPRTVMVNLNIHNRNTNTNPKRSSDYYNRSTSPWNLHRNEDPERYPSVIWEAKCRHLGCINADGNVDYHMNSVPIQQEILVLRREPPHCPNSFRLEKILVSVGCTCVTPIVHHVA
T1 sequence (Q96PD4 31-163): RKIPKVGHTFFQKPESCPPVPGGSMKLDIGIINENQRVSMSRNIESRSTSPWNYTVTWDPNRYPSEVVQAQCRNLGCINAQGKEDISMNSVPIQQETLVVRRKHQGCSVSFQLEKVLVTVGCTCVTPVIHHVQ
human IL-17A/F heterodimer, sequence (Q16552 24-155, chain 1 of 2): as the sequence (Q16552 24-155) above
human IL-17A/F heterodimer, sequence (Q96PD4 31-163, chain 2 of 2): as the sequence (Q96PD4 31-163) above

B1: 496.g3 IgG1 (bimekizumab) (antibody, V domains shown)
VH: EVQLVESGGGLVQPGGSLRLSCAASGFTFSDYNMAWVRQAPGKGLEWVATITYEGRNTYYRDSVKGRFTISRDNAKNSLYLQMNSLRAEDTAVYYCASPPQYYEGSIYRLWFAHWGQGTLVTVSS
VL: AIQLTQSPSSLSASVGDRVTITCRADESVRTLMHWYQQKPGKAPKLLIYLVSNSEIGVPDRFSGSGSGTDFRLTISSLQPEDFATYYCQQTWSDPWTFGQGTKVEIK
For orientation: Kd means the free concentration of one partner at which half of the binding sites on the other are occupied at equilibrium, for simple one-to-one binding. A low value points to higher affinity. Regarding B1, in test [1], the “IC50 of neutralization of IL-17A/F (30 ng/mL, with TNF 1 ng/mL): IL-6 production by NHDFs” value came out at 0.0489 µg/mL. In test [2], the “IC50 of neutralization of IL-17F (30 ng/mL, with TNF 1 ng/mL): IL-6 production by NHDFs” value came out at 0.0321 µg/mL. In test [3], the “IC50 of neutralization of IL-17A (1 ng/mL, with TNF 1 ng/mL): IL-6 production by NHDFs” value worked out at 0.0004 µg/mL. Moreover, the Kd in test [4] was determined as 0.0123 nM; in test [5], 0.345 nM.

B2: 496.g3 Fab (Fab, V domains shown)
VH: EVQLVESGGGLVQPGGSLRLSCAASGFTFSDYNMAWVRQAPGKGLEWVATITYEGRNTYYRDSVKGRFTISRDNAKNSLYLQMNSLRAEDTAVYYCASPPQYYEGSIYRLWFAHWGQGTLVTVSS
VL: AIQLTQSPSSLSASVGDRVTITCRADESVRTLMHWYQQKPGKAPKLLIYLVSNSEIGVPDRFSGSGSGTDFRLTISSLQPEDFATYYCQQTWSDPWTFGQGTKVEIK
In turn, B2 registered a Kd in test [6] of 0.0072 nM.

B3: 496.g1 Fab (Fab, V domains shown)
VH: EVQLVESGGGLVQPGGSLRLSCAASGFTFSDYNMAWVRQAPGKGLEWVATITYEGRNTYYRDSVKGRFTISRDNAKNSLYLQMNSLRAEDTAVYYCASPPQYYEGSIYRLWFAHWGQGTLVTVSS
VL: AIQLTQSPSSLSASVGDRVTITCRADESVTTLMHWYQQKPGKAPKLLIYLVSNRESGVPSRFSGSGSGTDFTLTISSLQPEDFATYYCQQTWSDPWTFGQGTKVEIK
Consider B3, for which the Kd came out at 1.51 nM in test [7] and 0.0292 nM in test [6].
